B1: CheW (natural protein)
chain: MTGMTNVTKLASEPSGQEFLVFTLGDEEYGIDILKVQEIRGYDQVTRIANTPAFIKGVTNLRGVIVPIVDLRIKFSQVDVDYNDNTVVIVLNLGQRVVGIVVDGVSDVLSLTAEQIRPAPEFAVTLSTEYLTGLGALGDRMLILVNIEKLLNSEEMALLDSAASEVA
B2: CheA (enzyme)
chain: MSMDISDFYQTFFDEADELLADMEQHLLVLQPEAPDAEQLNAIFRAAHSIKGGAGTFGFSVLQETTHLMENLLDEARRGEMQLNTDIINLFLETKDIMQEQLDAYKQSQEPDAASFDYICQALRQLALEAKGETPSAVTRLSVVAKSEPQDEQSRSQSPRRIILSRLKAGEVDLLEEELGHLTTLTDVVKGADSLSAILPGDIAEDDITAVLCFVIEADQITFETVEVSPKISTPPVLKLAAEQAPTGRVEREKTTRSNESTSIRVAVEKVDQLINLVGELVITQSMLAQRSSELDPVNHGDLITSMGQLQRNARDLQESVMSIRMMPMEYVFSRYPRLVRDLAGKLGKQVELTLVGSSTELDKSLIERIIDPLTHLVRNSLDHGIELPEKRLAAGKNSVGNLILSAEHQGGNICIEVTDDGAGLNRERILAKAASQGLTVSENMSDDEVAMLIFAPGFSTAEQVTDVSGRGVGMDVVKRNIQKMGGHVEIQSKQGTGTTIRILLPLTLAILDGMSVRVADEVFILPLNAVMESLQPREADLHPLAGGERVLEVRGEYLPIVELWKVFNVAGAKTEATQGIVVILQSGGRRYALLVDQLIGQHQVVVKNLESNYRKVPGISAATILGDGSVALIVDVSALQAINREQRMANTAA

Columns and labels:
[1] = biological target: His-tagged cytoplasmic fragment (CF) of the E. coli aspartate chemoreceptor, 4Q (E. coli); test: co-sedimentation
[2] = biological target: all active complexes of the different constructs assembled with vesicles, PEG, or Ni(II); test: co-sedimentation

Binder	percent bound [1]	sedimentation relative to the optimal NiCl2 sample [1]	sedimented (bound) concentration, maximum at 4 h [1]	stoichiometry N (CheW per 6 CF) [2]
B1	< 15%	50%	13.6 µM	2.1 to 3
B2	< 15%	50%	5.8 µM	

Source: PMC5678893
